Molecular target: T1, human epidermal growth factor receptor 2 (HER2) (human (endogenous in SKOV-3, BT474, …, UniProt P04626 23-1255))
T1 construct: human epidermal growth factor receptor 2 (HER2), endogenous on the cell lines SKOV-3, BT474 and DU145; also called HER2 receptor; source: endogenous, on living SKOV-3, BT474 and DU145 cells
Experiment: radioligand binding; LigandTracer, real-time association and dissociation on living SKOV-3 cells at room temperature; radioconjugate at 1, 4 and 8 nM; TraceDrawer fit with a 1:2 binding model
Conditions: one partner purified

| Binder | KD of the strongest interaction (1:2 binding model) [nM] | KD of the weaker interaction (1:2 binding model) [nM] |
| --- | --- | --- |
| [125I]I-DARPin 9_29 (designed binder, iodine-125 label attached to tyrosine (direct radioiodination), designed ankyrin repeat protein 9_29 against HER2; also called radioiodinated DARPin 9_29; source: E. coli BL21(DE3), purified (HisTrap HP, MonoQ); directly radioiodinated with chloramine T, purified on NAP-5; not shown: His6, C-terminal, kept) MDLGKKLLEAARAGQDDEVRILMANGADVNAHDFYGITPLHLAANFGHLEIVEVLLKHGADVNAFDYDNTPLHLAADAGHLEIVEVLLKYGADVNASDRDGHTPLHLAAREGHLEIVEVLLKNGADVNAQDKFGKTAFDISIDNGNEDLAEILQKLAAALE | 0.362 ± 0.13 | 7.7 ± 2.8 |
| [99mTc]Tc(CO)3-DARPin 9_29 (designed binder, [99mTc]Tc(CO)3 chelated by the C-terminal hexahistidine tag, designed ankyrin repeat protein 9_29 against HER2; also called 99mTc(CO)3-DARPin 9_29; [99mTc]Tc-DARPin 9_29; source: E. coli BL21(DE3), purified (HisTrap HP, MonoQ); labelled with technetium-99m tricarbonyl, purified on NAP-5; not shown: His6, C-terminal, kept) MDLGKKLLEAARAGQDDEVRILMANGADVNAHDFYGITPLHLAANFGHLEIVEVLLKHGADVNAFDYDNTPLHLAADAGHLEIVEVLLKYGADVNASDRDGHTPLHLAAREGHLEIVEVLLKNGADVNAQDKFGKTAFDISIDNGNEDLAEILQKLAAALE | 0.439 ± 0.156 | 9.1 ± 2.7 |

Source: paper PMC6011117, “Comparative Evaluation of Radioiodine and Technetium-Labeled DARPin 9_29 for Radionuclide Molecular Imaging of HER2 Expression in Malignant Tumors” (Contrast Media & Molecular Imaging, 2018)
